The results in this text go back to patent publication US20100004432, “APTAMER AGAINST MIDKINE AND USE THEREOF” (RIBOMIC INC., published 2010).

Positions count from the first letter of the chain named.

Data set [1] concerns the target T1, midkine (full-length) (Homo sapiens, UniProt P21741 P21741:23-143).
T1 sequence: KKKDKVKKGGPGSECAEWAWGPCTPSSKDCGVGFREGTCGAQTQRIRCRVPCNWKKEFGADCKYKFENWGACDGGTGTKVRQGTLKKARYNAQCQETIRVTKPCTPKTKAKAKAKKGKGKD
The experiment in a line: cell_activity; 500 nM RNA. The settings on record: tags: expressed in yeast. The procedure: (§1) 30 μL of 1.5 μM midkine was applied to the outer surface of the membrane of Chemotaxicell (membrane pore diameter 8 μm, manufactured by Kurabo) to immobilize the midkine to the outer surface of the membrane. The midkine-immobilized Chemotaxicell was placed on a 24-well culture plate containing 500 μL of a medium (supplemented with 0.3% bovine serum albumin, Dulbecco's Modified Eagle's medium) supplemented with each RNA aptamer added thereto at 100 nM. 200 μL of UMR106 cells were placed in the inner layer of the Chemotaxicell chamber at a density of 1×10⁶ cells/mL, and cultured at 37° C. for 4 hours. The cells remaining in the inner layer of the Chemotaxicell chamber were removed, and the cells that had infiltrated and adhered to the midkine-applied surface were fixed with methanol. The Chemotaxicell chamber was immersed in a 1% aqueous solution of Crystal Violet for 30 minutes to stain the cells. After the Chemotaxicell chamber was washed with distilled water and dried, the pigment was extracted with a mixed solution of 200 μL of 1% SDS and 1% triton X100. 150 μL of the extract was transferred to a 96-well microplate, and its absorbance at 590 nm was determined.
(§2) The aptamer shown by SEQ ID NO:5 is 77 nucleotides long, having the 2′-position of the ribose of the pyrimidine nucleotide fluoro-substituted. To enable the chemical synthesis, to reduce the toxicity, and to improve the stability in the blood, miniaturization and stabilization of this aptamer were performed. The operations of miniaturization and stabilization were performed on the basis of the secondary structure estimated by the MFOLD program, and the activity was evaluated by a cell migration inhibition experiment. The RNA concentration in the cell migration inhibition experiment was 100 nM or 500 nM. Since some errors occur in experimental results depending on cell condition, a previously assayed sample was included as a positive control in each measurement.

Data set [2] concerns the target T1, midkine (full-length). The experiment in a line: cell_activity; 500 nM RNA. The following applies: tags: expressed in yeast. The procedure: as §1, with “Chem. 276 (19), 15868-15875, 2001). […] 30 μL” for “30 μL”
as §2, with “SEQ ID NO:4 is 77” for “SEQ ID NO:5 is 77”, “having the 2′ position of the” for “having the 2′-position of the”, “pyrimidine nucleotide thereof fluoro-substituted. To” for “pyrimidine nucleotide fluoro-substituted. To”, “inhibition experiment. In the cell” for “inhibition experiment. The RNA concentration in the cell”, “migration inhibition experiment, the RNA concentration was 100” for “migration inhibition experiment was 100”
This is another data set of the same source.

B1: SEQ ID NO:55 (ssRNA)
RNA: GGGAGAGGAGGAGGAAGUGCACAGGGGUUGGUGUCGGGUGCAC
modifications: 2'-F pyrimidines
With B1, the activity in the data set with midkine (full-length) [1] is 100 % of SEQ 40 inhibition.

B2: SEQ ID NO:57 (ssRNA)
RNA: B1 RNA with G11A, G14A
modifications: 2'-F pyrimidines
Take B2: the activity with midkine (full-length) [1] was 100 % of SEQ 40 inhibition.

B3: SEQ ID NO:50 (ssRNA)
RNA: B1 RNA with G5A, A6G, G8A, G10A
modifications: 2'-F pyrimidines
Turning to B3, in the data set with midkine (full-length) [1], the activity is 91 % of SEQ 40 inhibition.

B4: SEQ ID NO:56 (ssRNA)
RNA: B1 RNA with G11A
modifications: 2'-F pyrimidines
With B4, in the data set with midkine (full-length) [1], the activity is 100 % of SEQ 40 inhibition.

B5: SEQ ID NO:58 (ssRNA)
RNA: B1 RNA with G11A, G14A, A15G, A16G
modifications: 2'-F pyrimidines
For the molecule B5, the activity with midkine (full-length) [1] is 100 % of SEQ 40 inhibition.

B6: SEQ ID NO:17 (ssRNA)
RNA: GGGAGAGGAACGCUACGAGGAGUAGCCGGAAAGAAGGCGGCGUAGC
modifications: 2'-F pyrimidines
Take B6: in the data set with midkine (full-length) [2], the activity was 68 % of SEQ 4 inhibition.

B7: SEQ ID NO:44 (ssRNA)
RNA: GGGAGAGGAGAAGAGGAAGUUGCACAGGGGUUGGUGUCGGGUGCAAC
modifications: 2'-F pyrimidines
For B7, the activity in the data set with midkine (full-length) [1] was 100 % of SEQ 40 inhibition.

B8: SEQ ID NO:10 (ssRNA)
RNA: GGGAGAGGAGAAGAGGAACGUGCUCUGUACGAGGAGUAGCCGAAAGGCGGUGUGUAGAGGACAGGAAUGAGGA
modifications: 2'-F pyrimidines
B8: the activity in the data set with midkine (full-length) [2] is 81 % of SEQ 4 inhibition.

B9: SEQ ID NO:14 (ssRNA)
RNA: GGGAGAGGAGAAGAGGAACGCUACGAGGAGUAGCCGGAAAGAAGGCGGCGUAGC
modifications: 2'-F pyrimidines
Turning to B9, the activity with midkine (full-length) [2] was 100 % of SEQ 4 inhibition.

B10: SEQ ID NO:6 (ssRNA)
RNA: GGGAGAGGAGAAGAGGAACGUGCUCUGUACGAGGAGUAGCCGGAAAGAAGGCGGUGUGUAGAGGACA
modifications: 2'-F pyrimidines
Turning to B10, the activity with midkine (full-length) [2] was 110 % of SEQ 4 inhibition.

B11: SEQ ID NO:46 (ssRNA)
RNA: GGGAGAGGAGAAGAGGAAGUGCGCGCAGGGGUUGGUGUCGGGCGCGUAC
modifications: 2'-F pyrimidines
Take B11: in the data set with midkine (full-length) [1], the activity is 92 % of SEQ 40 inhibition.

B12: SEQ ID NO:13 (ssRNA)
RNA: GGGAGAGGAACGCUGCACGAGGAGUAGCCGGAAAGAAGGCGGCGUGCAGC
modifications: 2'-F pyrimidines
As to B12, in the data set with midkine (full-length) [2], the activity is 100 % of SEQ 4 inhibition.

B13: SEQ ID NO:7 (ssRNA)
RNA: GGGAACGUGCUCUGUACGAGGAGUAGCCGGAAAGAAGGCGGUGUGUAGAGGACAGGAAUGAGGA
modifications: 2'-F pyrimidines
As to B13, in the data set with midkine (full-length) [2], the activity was 91 % of SEQ 4 inhibition.

B14: SEQ ID NO:60 (ssRNA)
RNA: GGGAAGGAGUGCACAGGGGUUGGUGUCGGGUGCAC
modifications: 2'-F pyrimidines
Regarding B14, the activity with midkine (full-length) [1] is 70 % of SEQ 40 inhibition.

B15: SEQ ID NO:9 (ssRNA)
RNA: GGGAGAGGAGAAGAGGAACGUGCUCUGUACGCCGGAAAGAAGGUGUGUAGAGGACAGGAAUGAGGA
modifications: 2'-F pyrimidines
On to B15, for which, in the data set with midkine (full-length) [2], the activity is 57 % of SEQ 4 inhibition.

B16: SEQ ID NO:12 (ssRNA)
RNA: GGGAGAGGAGAAGAGGAACGCUGCACGAGGAGUAGCCGGAAAGAAGGCGGCGUGCAGC
modifications: 2'-F pyrimidines
With B16, in the data set with midkine (full-length) [2], the activity was 100 % of SEQ 4 inhibition.

B17: SEQ ID NO:15 (ssRNA)
RNA: GGGAGAGGAGAAGAGGAACGCUGCACGAGGAGUAGCCGGAAAGGGCGGCGUGCAGC
modifications: 2'-F pyrimidines
As for B17, the activity in the data set with midkine (full-length) [2] is 75 % of SEQ 4 inhibition.

B18: SEQ ID NO:59 (ssRNA)
RNA: GGGUGCACAGGGGUUGGUGUCGGGUGCAC
modifications: 2'-F pyrimidines
B18: the activity with midkine (full-length) [1] is 53 % of SEQ 40 inhibition.

B19: SEQ ID NO:8 (ssRNA)
RNA: GGGAGAGGAGAAGAGGAACGCUGUACGAGGAGUAGCCGGAAAGAAGGCGGUGUGUAGCAGGAAUGAGGA
modifications: 2'-F pyrimidines
As for B19, the activity with midkine (full-length) [2] was 100 % of SEQ 4 inhibition.

B20: SEQ ID NO:61 (ssRNA)
RNA: GGGAAGGAGGAAGUGCACAGGGGUUGGUGUCGGGUGCAC
modifications: 2'-F pyrimidines
As for B20, the activity with midkine (full-length) [1] is 100 % of SEQ 40 inhibition.

B21: SEQ ID NO:62 (ssRNA)
RNA: B20 RNA with A5G, G6A, A8G, G9A
modifications: 2'-F pyrimidines
With B21, the activity with midkine (full-length) [1] is 44 % of SEQ 40 inhibition.

B22: SEQ ID NO:69 (ssRNA)
RNA: B20 RNA with U25A
modifications: 2'-F pyrimidines; 2'-OMe on part of purines (5' strand A, stem purines, loop G, A25)
In the case of B22, in the data set with midkine (full-length) [1], the activity is 60 % of SEQ 40 inhibition.

B23: SEQ ID NO:68 (ssRNA)
RNA: B20 RNA with U28A
modifications: 2'-F pyrimidines; 2'-OMe on part of purines (5' strand A, stem purines, loop G, A28)
As to B23, the activity with midkine (full-length) [1] is 72 % of SEQ 40 inhibition.

B24: SEQ ID NO:70 (ssRNA)
RNA: B20 RNA with U24A
modifications: 2'-F pyrimidines; 2'-OMe on part of purines (5' strand A, stem purines, loop G, A24)
Consider B24, for which the activity with midkine (full-length) [1] is 110 % of SEQ 40 inhibition.

B25: SEQ ID NO:11 (ssRNA)
RNA: GGGAGAGGAGAAGAGGAACGUGCUCUGCACGAGGAGUAGCCGGAAAGAAGGCGGCGUGCAGAGGACAGGAAUGAGGA
modifications: 2'-F pyrimidines
Turning to B25, in the data set with midkine (full-length) [2], the activity was 100 % of SEQ 4 inhibition.

B26: SEQ ID NO:51 (ssRNA)
RNA: GGGAAGGAGAGAGGAAGUGCACAGGGGUUGGUGUCGGGUGCACAGUAUAAG
modifications: 2'-F pyrimidines
For B26, the activity with midkine (full-length) [1] was 100 % of SEQ 40 inhibition.

B27: SEQ ID NO:53 (ssRNA)
RNA: B26 RNA with G9A
modifications: 2'-F pyrimidines
Turning to B27, the activity in the data set with midkine (full-length) [1] is 100 % of SEQ 40 inhibition.

B28: SEQ ID NO:52 (ssRNA)
RNA: B26 RNA with G3A, A5G, G7A, A8G, G9A
modifications: 2'-F pyrimidines
B28: in the data set with midkine (full-length) [1], the activity is 100 % of SEQ 40 inhibition.

B29: SEQ ID NO:18 (ssRNA)
RNA: GGGCUACGAGGAGUAGCCGGAAAGAAGGCGGCGUAGC
modifications: 2'-F pyrimidines
Turning to B29, the activity with midkine (full-length) [2] was 88 % of SEQ 4 inhibition.

B30: SEQ ID NO:47 (ssRNA)
RNA: GGGAGAGGAGAAGAGGAAGUGUGCACAGGGGUGGUGUCGGGUGCAUAC
modifications: 2'-F pyrimidines
Consider B30, for which the activity with midkine (full-length) [1] is 84 % of SEQ 40 inhibition.

B31: SEQ ID NO:49 (ssRNA)
RNA: B30 RNA with G33U, U35G
modifications: 2'-F pyrimidines
Take B31: the activity with midkine (full-length) [1] was 69 % of SEQ 40 inhibition.

B32: SEQ ID NO:48 (ssRNA)
RNA: B30 RNA with G33U
modifications: 2'-F pyrimidines
For B32, the activity in the data set with midkine (full-length) [1] is 60 % of SEQ 40 inhibition.

B33: SEQ ID NO:54 (ssRNA)
RNA: GGGAGAGGAGAAGAGGAAGUGCACAGGGGUUGGUGUCGGGUGCAC
modifications: 2'-F pyrimidines; 5' single strand (nt 1-18) all G 2'-F and all A 2'-OMe
For the molecule B33, in the data set with midkine (full-length) [1], the activity is 100 % of SEQ 40 inhibition.

B34: SEQ ID NO:63 (ssRNA)
RNA: B33 RNA with A25C, G26C
modifications: 2'-F pyrimidines
Consider B34, for which the activity with midkine (full-length) [1] was 97 % of SEQ 40 inhibition.

B35: SEQ ID NO:45 (ssRNA)
RNA: B33 RNA
modifications: 2'-F pyrimidines
On to B35, for which, in the data set with midkine (full-length) [1], the activity is 100 % of SEQ 40 inhibition.

B36: SEQ ID NO:66 (ssRNA)
RNA: GGAAGGAGGAAGUGCACAGGGGUUGGUGUCGGGUGCAC
modifications: g(F)g(F)a(M)a(M)g(F)g(F)a(M)g(F)g(F)a(M)a(M)g(M)u(F)g(M)c(F)a(M)c(F)a(M)gg(M)g(M)g(M)u(F)u(F)g(M)g(M)u(F)g(M)u(F)c(F)g(F)g(F)g(M)u(F)g(M)c(F)a(M)c(F); F=2'-F M=2'-OMe
Turning to B36, the activity in the data set with midkine (full-length) [1] is 51 % of SEQ 40 inhibition.

B37: SEQ ID NO:67 (ssRNA)
RNA: B36 RNA
modifications: gga(M)a(M)gga(M)gga(M)a(M)g(M)u(F)g(M)c(F)a(M)c(F)aggg(M)g(M)u(F)u(F)g(M)g(M)u(F)g(M)u(F)c(F)gggu(F)g(M)c(F)a(M)c(F); F=2'-F M=2'-OMe
For B37, the activity in the data set with midkine (full-length) [1] was 110 % of SEQ 40 inhibition.

B38: SEQ ID NO:16 (ssRNA)
RNA: GGGAGAGGAGAAGAGGAACGCUGCACGAGGGUAGCCGGAAAGAAGGCGGCGUGCAGC
modifications: 2'-F pyrimidines
Turning to B38, in the data set with midkine (full-length) [2], the activity was 61 % of SEQ 4 inhibition.
